Laboratory results published in paper doi:10.1101/2024.04.30.591854.

Target: RBK21 variable region (residues 148-299) (Plasmodium falciparum (strain Lek174))
Assay: SPR

Chain of KIR2DS1 as used in the SPR experiment with RBK21 (Q14954 22-304): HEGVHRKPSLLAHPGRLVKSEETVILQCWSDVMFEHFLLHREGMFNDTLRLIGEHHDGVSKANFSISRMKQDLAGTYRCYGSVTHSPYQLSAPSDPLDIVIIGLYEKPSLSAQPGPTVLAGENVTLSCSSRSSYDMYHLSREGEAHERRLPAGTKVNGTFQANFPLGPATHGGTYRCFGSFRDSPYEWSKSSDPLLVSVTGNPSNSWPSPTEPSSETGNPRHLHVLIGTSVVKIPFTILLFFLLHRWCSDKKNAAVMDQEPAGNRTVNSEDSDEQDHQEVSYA
Chain of KIR2DL1 as used in the SPR experiments with RBK21 (P43626 22-348): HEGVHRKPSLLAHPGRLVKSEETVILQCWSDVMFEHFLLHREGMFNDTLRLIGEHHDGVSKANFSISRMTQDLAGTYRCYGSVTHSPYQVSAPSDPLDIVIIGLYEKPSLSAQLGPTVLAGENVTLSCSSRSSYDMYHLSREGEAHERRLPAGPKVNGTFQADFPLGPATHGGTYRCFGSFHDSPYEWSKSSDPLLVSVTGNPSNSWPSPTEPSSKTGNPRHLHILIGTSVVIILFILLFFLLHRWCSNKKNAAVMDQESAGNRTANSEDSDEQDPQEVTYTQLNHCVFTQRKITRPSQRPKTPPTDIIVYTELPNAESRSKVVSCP

Row | Substance | Kd
1 | KIR2DL1 as used in the SPR experiments with RBK21 (from UniProt P43626 22-348) (receptor) | 0.45 µM
2 | KIR2DS1 as used in the SPR experiment with RBK21 (from UniProt Q14954 22-304) (receptor) | 2 µM
